From JP2016028048A (dated 2016)
Blank lines part the entries; values can stand above or below the binder they belong to.

Key:
[1] = target: T1, ヒト組織因子経路インヒビター (human TFPI) (human, UniProt P10646 29-304, limits assumed); assay: ELISA on human TFPI-coated plate
T1 construct: Coated on Maxisorp plates (ELISA) or amine-coupled to a CM5 chip (Biacore); also called ヒトTFPI; hTFPI
T1 sequence (looked up): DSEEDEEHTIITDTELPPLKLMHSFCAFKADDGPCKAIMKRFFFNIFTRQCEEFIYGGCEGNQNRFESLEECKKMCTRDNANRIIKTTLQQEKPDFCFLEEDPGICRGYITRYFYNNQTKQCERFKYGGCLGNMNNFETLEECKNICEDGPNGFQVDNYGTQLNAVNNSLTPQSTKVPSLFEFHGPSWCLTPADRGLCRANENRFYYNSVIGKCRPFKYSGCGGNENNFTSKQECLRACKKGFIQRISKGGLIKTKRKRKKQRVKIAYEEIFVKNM

マウスTFPI (mouse TFPI) [2] = target: T2, マウスTFPI (mouse TFPI) (mouse, UniProt O54819 29-289, limits assumed); assay: ELISA on mouse TFPI-coated plate
T2 construct: Coated on plates (ELISA) or amine-coupled to a CM5 chip (Biacore); also called mTFPI; m-TFPI
T2 sequence (looked up): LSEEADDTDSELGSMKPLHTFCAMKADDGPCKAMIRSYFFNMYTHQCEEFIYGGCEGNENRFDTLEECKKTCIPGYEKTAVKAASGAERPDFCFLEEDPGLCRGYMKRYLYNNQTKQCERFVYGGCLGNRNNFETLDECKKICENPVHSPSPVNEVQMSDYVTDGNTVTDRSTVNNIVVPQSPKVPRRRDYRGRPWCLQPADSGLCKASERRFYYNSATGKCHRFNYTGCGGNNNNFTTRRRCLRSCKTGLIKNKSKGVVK

[3] = target: T1, ヒト組織因子経路インヒビター (human TFPI); assay: ELISA on human TFPI-coated plate; IgG against the Fab
マウスTFPI (mouse TFPI) [4] = target: T2, マウスTFPI (mouse TFPI); assay: ELISA on mouse TFPI-coated plate; IgG against the Fab

- EC50 [1]: 0.48 nM
- EC50 (マウスTFPI (mouse TFPI) [2]): 5.18 nM
B1: TP-2G6 (Fab, V domains shown)
VH: QVQLQQSGPGLVKPSQTLSLTCAISGDSVSSSSAAWSWIRQSPGRGLEWLGIIYYRSKWYNDYAVSVKSRITINPDTSKNQFSLQLNSVTPEDTAVYYCARHSMVGFDVWGQGTLVTVSS
VL: DIVLTQSPATLSLSPGERATLSCRASQYVTSSYLAWYQQKPGQAPRLLIYGSSRATGVPARFSGSGSGTDFTLTISSLEPEDFATYYCQQYSSSPITFGQGTKVEIKR
notes: Human Fab (HuCal Gold), made in E. coli TG1; also called 2G6-Fab

- fold change of EC50 against 2G6-Fab [3]: 2 倍
- EC50 [1]: 0.22 nM
- fold change of EC50 against 2G6-Fab (マウスTFPI (mouse TFPI) [4]): 10 倍
- EC50 (マウスTFPI (mouse TFPI) [2]): 0.51 nM
B2: 2G6-IgG (antibody, V domains shown)
VH: B1 VH
VL: B1 VL
notes: also called IgG-2G6; TP-2G6 after conversion to IgG
